From paper PMC5353646, “Allosteric modulation of peroxisomal membrane protein recognition by farnesylation of the peroxisomal import receptor PEX19” (Nature Communications, 2017)
Residues, ends and D or L forms follow the SMILES beside them. *: point of attachment. FITC = O=C1OC2(c3ccc(O)cc3Oc3cc(O)ccc32)c2ccc(NC(=S)*)cc21

Legend:
farnesylated PEX19 CTD = biological target: T1, farnesylated PEX19 CTD (Homo sapiens, UniProt P40855); assay: NMR titration of farnesylated PEX19 CTD with PMP peptides; type: binding; conditions: 1H,15N HSQC, 298 K, ALDP at 5 and 10 molar ratio with 100 μM PEX19 CTD, PEX13 at 1:1.5 and 1:0.5 with 50 μM
T1 construct: we studied the human PEX19 CTD (residues 161–299) that includes the native C-terminus; hexahistidine (TEV-cleavable) (cleaved yes); made in house; host or cells: Escherichia coli BL21 (DE3); farnesylated in vitro with recombinant S. cerevisiae farnesyl transferase
T1 sequence (P40855 161-299): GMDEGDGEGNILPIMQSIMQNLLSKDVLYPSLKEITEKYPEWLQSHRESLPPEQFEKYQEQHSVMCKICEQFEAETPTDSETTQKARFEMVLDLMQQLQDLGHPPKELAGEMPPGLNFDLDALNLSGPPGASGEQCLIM

[1] = NMR 13C secondary chemical shifts (peptide conformation); type: physicochemical; conditions: C-terminally extended version of the ALDP peptide with additional tryptophan (residue 68 to 82)
Excerpt: Phe71 aromatic ring protons
Residue number Leucine residue
Supplementary Figure 8: Intermolecular NOEs between PEX19 CTD and the ALDP peptide, and secondary structure of the latter. (a) 1H,1H plane of a 3D ω1-filtered, ω2-edited 13C-NOESY-HSQC experiment of farnesylated PEX19 CTD free (black) and bound to the ALDP peptide (red). Methyl and methylene protons of the unlabeled farnesyl group of the PEX19 CTD show NOEs with protons of the isotope-labeled farnesylated PEX19 CTD (black circles). In the presence of also unlabeled ALDP peptide additional intermolecular methyl-methyl and aliphatic-aromatic NOEs are observed (red circles and below). (b) NMR 13C secondary chemical shifts of a C-terminally extended […]
tion. (c) Due to signal overlap, 5 out of 7 spin systems for leucine residues were assigned. Nevertheless, also the leucines residues adopt a helical conformation.
(also on this page, place not known: (Leu75)(Leu76) (Leu81)(Leu82) 5 LeuC Cα- Cβ [p.p.m.] Cα- Cβ [p.p.m.] c ω2 ω1 1H (p.p.m.) ω1 1H (p.p.m.) QDPro273/Pro274 { - - { 5)

PEX19 CTD M255R = assay: Fluorescence polarization, ALDP peptide binding to PEX19 CTD M255R; design: species or system human; conditions: with or without farnesylation, FITC-labelled ALDP peptide 20 nM, triplicate (n = 3)
Method: (§1) ALDP peptide (62-AAKAGMNRVFLQRLL-76) fused N-terminally with fluorescein isothiocyanate (FITC), was purchased from Peptide Specialty Laboratories GmbH. The lyophilized powder was dissolved in 1 ml water resulting in a 5 mM stock solution. Overnight dialysis against buffer containing 50 mM Tris pH 8.0, 50 mM NaCl, removed trifluoroacetate counterions. For the determination of each binding curve a 12 point titration was performed with constant concentration of 20 nM labelled peptide with increasing concentrations of PEX19 CTD variants. Starting concentration of PEX19 CTD was 1 mM with 12 serial dilutions reaching 0.5 μM. Reaction mixtures were then transferred into 96-well Optiplate and measured as triplicates in PerkinElmer EnVision plate reader. […]
(§2) Supplementary Figure 6: ALDP af finity measurement for PEX19 CTD proteins using a fluorescence polarization assay . Polarization plots as a function of protein concentration for the direct titration of PEX19 non-farnesylated (black) and farnesylated (red) forms (wild type and residue spedific mutants) into fluorescein-labeled ALDP peptide. […]
(§3) (also on this page, place not known: assay. affinity Fluorescence polarization (mP) wt wtfarn Fluorescence polarization (mP) M179Rfarn 0.00 1.00 Fluorescence polarization (mP) M255Rfarn 0.00 1.00 Fluorescence polarization (mP) I195Kfarn Kd Kd /uni03BCM)

PEX19 CTD I195K = assay: Fluorescence polarization, ALDP peptide binding to PEX19 CTD I195K; design: species or system human; conditions: with or without farnesylation, FITC-labelled ALDP peptide 20 nM, triplicate (n = 3)
Method: as §1, §2, §3

PEX19 CTD M179R = assay: Fluorescence polarization, ALDP peptide binding to PEX19 CTD M179R; design: species or system human; conditions: with or without farnesylation, FITC-labelled ALDP peptide 20 nM, triplicate (n = 3)
Method: as §1, §2, §3

[2] = biological target: T2, farnesylated wild type PEX19 CTD (Homo sapiens, UniProt P40855); assay: Fluorescence polarization, ALDP peptide binding to farnesylated wild type PEX19 CTD; conditions: ratio farnesylated vs non-farnesylated wild type PEX19 CTD
T2 construct: we studied the human PEX19 CTD (residues 161–299) that includes the native C-terminus; hexahistidine (TEV-cleavable) (cleaved yes); made in house; host or cells: Escherichia coli BL21 (DE3); farnesylated in vitro with recombinant S. cerevisiae farnesyl transferase
T2 sequence (P40855 161-299): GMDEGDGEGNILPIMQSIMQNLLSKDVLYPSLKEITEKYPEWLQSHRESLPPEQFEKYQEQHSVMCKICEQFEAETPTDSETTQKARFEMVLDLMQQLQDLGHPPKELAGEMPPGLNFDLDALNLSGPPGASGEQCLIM
Method: as §1, §2
standard deviations for triplicate measurements (n = 3).
as §3

[3] = 15N NMR relaxation, tumbling correlation time; type: physicochemical; conditions: for tumbling correlation time τc: 15N R2/R1 ratio, 750 MHz, 298 K, PEX19 CTD residues 161–299; for oligomeric state in solution: from τc, 15N NMR relaxation
Excerpt: NMR spectra were acquired at 298 K on a Bruker Avance III 600-MHz spectrometer with a TCI cryo-probe head, an Avance III 750-MHz spectrometer with a TXI probe head, or an Avance 900 instrument with a TXI cryo-probe head. Spectra were processed using NMRPipe[31] and analysed with Sparky[32]. Backbone assignment was done semi-automatically with MARS[33]. Backbone and side chain assignments were obtained from HNCA, HNCACB, CBCA(CO)NH, H(C)CH-TOCSY and (H)CCH-TOCSY spectra. ^13C- and ^15N- edited NOESY spectra with a mixing time of 70 ms were recorded to derive distance restraints. For NOEs between PEX19 and the farnesyl group, isotope-edited and filtered 3D NOESY spectra (70 and 100 ms mixing times) were acquired using specific isotope-labelled samples. ^15N R1, R2 relaxation rates and {^1H}-^15N heteronuclear NOEs were recorded at an Avance III 750 MHz spectrometer. Local correlation times were derived from the ^15N R2/R1 ratio[35]. For determination of solvent paramagnetic relaxation enhancement rates, gadolinium diethylene-triamine-penta-acetic-acid bismethylamide (Gd(DTPA-BMA)) was titrated to the protein samples[36][37][38]. Saturation recovery ^1H,^15N HSQC experiments with recovery times from 0.01 to 3 s were recorded at concentrations of 0, 1, 2, 3, 5, 7 and 10 mM Gd(DTPA-BMA). Peak intensities were fitted to an exponential recovery function according to equation I(τ)=I0−Aexp(−R1τ), where τ is the recovery delay, I(τ) is the peak intensity measured for the recovery delay τ, I0 is the maximum peak intensity, R1 is the longitudinal proton relaxation rate and A is the signal amplitude. To obtain the sPRE value, the proton R1 rates were collected for all measured concentrations of Gd(DTPA-BMA) cpara and a linear regression for the equation R1 (cpara)=msPRE cpara+ [drawing 1] was performed, where R1 (cpara) is the proton R1 measured at the concentration cpara of the paramagnetic compound, the slope msPRE corresponds to the sPRE and [drawing 2] is the fitted proton R1 in the absence of the paramagnetic compound[36]. For NMR titrations an ALDP peptide (sequence: AAKAGMNRVFLQRLL, residues 62–76 of human ALDP) was dissolved to a concentration of 5 mM in NMR buffer and added to ^15N-labelled PEX19 CTD with and without farnesylation in the same buffer up to a protein-peptide molar ratio of 1:10.

[4] = Hydrophobic interaction chromatography; type: physicochemical; conditions: Butyl Sepharose FF, linear decreasing (NH4)2SO4 650–0 mM, 20 ml, 280 nm; for elution volume after start of the gradient: 20 mM potassium phosphate, pH 6.5, 50 mM NaCl, 500 μg protein
Method: Purified PEX19 CTD and variants were adjusted to a buffer containing 650 mM (NH4)2SO4 and 500 μg protein was subjected to equilibrated Butyl Sepharose FF column (20 mM potassium phosphate, pH 6.5, 50 mM NaCl and 650 mM (NH4)2SO4). After washing, bound protein was eluted with linear decreasing (NH4)2SO4 concentrations (650–0 mM (NH4)2SO4, 20 ml). Eluted proteins were detected using 280 nm absorption. The binding strength is indicated by the elution volume and correlates with protein hydrophobicity.

[5] = system: peroxisome biogenesis in cells; conditions: ref Sacksteder et al, Gould J Cell Biol 2000; cited from earlier work
Excerpt: page 14: remnants (and this is also what can be seen in these figures). To improve clarity and avoid confusion, the authors should correct these mistakes. […] The sentence on page 9 now reads “Cells that are not complemented by functional PEX19 show a cytosolic mislocalization of the peroxisomal marker protein GFP-PTS1 and a diffuse background immunolabelling of the peroxisomal membrane protein PEX14 that is different from the peroxisomal pattern and known to be due to mislocalization to mitochondria (Fig. 5c, ΔPEX19).” Accordingly, the legend of Figure 5 ...

In the case of “HFTKVFSAFALVRTIR [PEX13 peptide, peptide derived from the PMP PEX13]”, the “NMR chemical shift perturbations / line broadening of farnesylated PEX19 CTD” value (farnesylated PEX19 CTD) is reported as “severe line broadening” and the “NMR chemical shift perturbations / line broadening of farnesylated PEX19 CTD” value (farnesylated PEX19 CTD; listed as PEX13) is reported as “even stronger NMR chemical shift perturbation changes to helix α1, and significant line broadening in the lid region”.

With “C-terminally extended: C-terminally extended version of the ALDP peptide, which harbors an additional tryptophan (residue 68 to 82) (NRVFLQRLLWLLRLL; UniProt P33897 68-82, looked up, fragment)” the “helical conformation of free peptide” value [1] was “largely helical conforma”.

For `CSCC[C@H](NC(=O)CNC(=O)[C@H](C)NC(=O)[C@H](CCCCN)NC(=O)[C@H](C)NC(=O)[C@H](C)NC(=S)Nc1ccc2c(c1)C(=O)OC21c2ccc(O)cc2Oc2cc(O)ccc21)C(=O)N[C@@H](CC(N)=O)C(=O)N[C@@H](CCCNC(=N)N)C(=O)N[C@H](C(=O)N[C@@H](Cc1ccccc1)C(=O)N[C@@H](CC(C)C)C(=O)N[C@@H](CCC(N)=O)C(=O)N[C@@H](CCCNC(=N)N)C(=O)N[C@@H](CC(C)C)C(=O)N[C@@H](CC(C)C)C(=O)O)C(C)C` [fluorescein-labeled ALDP peptide] ({FITC}-AAKAGMNRVFLQRLL-OH; C-terminus assumed), the “binding to PEX19 CTD M255R” value (PEX19 CTD M255R) was “impaired binding”, the “binding to PEX19 CTD I195K” value (PEX19 CTD I195K) was “impaired binding” and the “binding to PEX19 CTD M179R” value (PEX19 CTD M179R) was “impaired binding”. The “increase in affinity upon farnesylation of wild type PEX19 CTD” value [2] was “seven”.

B1: PEX19 CTD: human PEX19 C-terminal domain (residues 161–299) (protein)
chain: GMDEGDGEGNILPIMQSIMQNLLSKDVLYPSLKEITEKYPEWLQSHRESLPPEQFEKYQEQHSVMCKICEQFEAETPTDSETTQKARFEMVLDLMQQLQDLGHPPKELAGEMPPGLNFDLDALNLSGPPGASGEQCLIM
modifications: left off: His6, end not stated, cleaved
In the case of B1, the “tumbling correlation time τc” value [3] is reported as 11.4 ns, the “oligomeric state in solution” value [3] is reported as “monomeric in solution” and the “elution volume after start of the gradient” value [4] is reported as 9.66 mL. For the same molecule, the “ΔV, difference in elution volume between farnesylated and non-farnesylated protein” value ([4]; pH 6.5) was 5.08 mL.

B2: PEX19 CTD farnesylated: human PEX19 CTD (residues 161–299) farnesylated in vitro (protein)
chain: GMDEGDGEGNILPIMQSIMQNLLSKDVLYPSLKEITEKYPEWLQSHRESLPPEQFEKYQEQHSVMCKICEQFEAETPTDSETTQKARFEMVLDLMQQLQDLGHPPKELAGEMPPGLNFDLDALNLSGPPGASGEQCLIM
modifications: farnesyl group on Cys296 (CaaX box); left off: His6, end not stated, cleaved
notes: human PEX19 CTD (residues 161–299) farnesylated in vitro
In the case of B2, the “tumbling correlation time τc” value [3] is reported as 10.5 ns, the “oligomeric state in solution” value [3] is reported as “monomeric in solution” and the “elution volume after start of the gradient” value [4] is reported as 14.74 mL.

B3: PEX19/C296A: human PEX19 with a mutation of the farnesylation site (Sacksteder et al) (protein, UniProt P40855 2-296, looked up, variant C296A)
Peroxisomal biogenesis factor …: AAAEEGCSVGAEADRELEELLESALDDFDKAKPSPAPPSTTTAPDASGPQKRSPGDTAKDALFASQEKFFQELFDSELASQATAEFEKAMKELAEEEPHLVEQFQKLSEAAGRVGSDMTSQQEFTSCLKETLSGLAKNATDLQNSSMSEEELTKAMEGLGMDEGDGEGNILPIMQSIMQNLLSKDVLYPSLKEITEKYPEWLQSHRESLPPEQFEKYQEQHSVMCKICEQFEAETPTDSETTQKARFEMVLDLMQQLQDLGHPPKELAGEMPPGLNFDLDALNLSGPPGASGEQA
For B3, the “functional complementation, % of the activity of wild-type PEX19” value [5] is listed as about 80%.
